Laboratory results reported in publication PMC6531875.

Target: Csk (UniProt P41240)
Test: anti-Flag co-IP, anti-Myc blot
Conditions: reference: Myc-Cbp wild type; sites Y317

binding against the reference: weaker
Substance: Cbp (Csk binding protein, Cbp/PAG1) (from UniProt Q9NWQ8) Myc-Cbp Y317F
